Measured values reported in FireProtDB (doi:10.1046/j.1432-1327.1999.00918.x).
Several values for one entry are separate records, joined by “and”; a condition that tells them apart may be missing. Equal entries are not always repeated.

B1: Lysozyme C, P61626 (parent)
chain: MKALIVLGLVLLSVTVQGKVFERCELARTLKRLGMDGYRGISLANWMCLAKWESGYNTRATNYNAGDRSTDYGIFQINSRYWCNDGKTPGAVNACHLSCSALLQDNIADAVACAKRVVRDPQGIRAWVAWRNRCQNRDVRQYVQGCGV

Variants of: B1
Settings: Homo sapiens, Thermal, DSC, glycine 0.05 M, reversible: yes, structure 1LZ1, whole UniProt chain shown

| Variant | Tm (pH 2.58) [°C] | unfolding enthalpy (calorimetric) (pH 2.58) [kcal/mol] | unfolding enthalpy (van 't Hoff) (pH 2.58) [kcal/mol] | Tm (pH 2.7) | change of melting temperature, mutant - wild type (higher = more stable) (pH 2.7) [°C] | heat capacity change of unfolding (pH 2.7) [kcal/mol/K] | unfolding enthalpy (calorimetric) (pH 2.7) [kcal/mol] | Tm (pH 2.77) [°C] | unfolding enthalpy (calorimetric) (pH 2.77) [kcal/mol] | unfolding enthalpy (van 't Hoff) (pH 2.77) [kcal/mol] | Tm (pH 2.5) [°C] | unfolding enthalpy (calorimetric) (pH 2.5) [kcal/mol] | unfolding enthalpy (van 't Hoff) (pH 2.5) [kcal/mol] | ddG of mutation (higher = less stable) (pH 2.7, 64.9 °C) [kcal/mol] | Tm (pH 2.95) [°C] | unfolding enthalpy (calorimetric) (pH 2.95) [kcal/mol] | unfolding enthalpy (van 't Hoff) (pH 2.95) [kcal/mol] | Tm (pH 3.22) [°C] | unfolding enthalpy (calorimetric) (pH 3.22) [kcal/mol] | unfolding enthalpy (van 't Hoff) (pH 3.22) [kcal/mol] |
| --- | --- | --- | --- | --- | --- | --- | --- | --- | --- | --- | --- | --- | --- | --- | --- | --- | --- | --- | --- | --- |
| K19A | 60.9 | 90.6 | 98.7 | 62.7 °C | -2.2 | 1.6 | 96.8 | 63.7 | 95.1 | 99.4 | – | – | – | – | – | – | – | – | – | – |
| K19M | – | – | – | 64.4 °C and 64.9 °C | -0.5 | 1.03 | 91.8 | – | – | – | 61.7 | 88.4 | 90.1 | 0.12 | 69.1 | 95.4 | 97.5 | 70.1 | 98.5 | 106 |
